Target: the molecule itself
Assay: cryo-EM structure

B1: human DNA polymerase theta helicase domain (Polθ-HLD), residues 67-940 (domain or fragment, UniProt O75417 67-940, looked up)
chain: DKLLLANWGLPKAVLEKYHSFGVKKMFEWQAECLLLGQVLEGKNLVYSAPTSAGKTLVAELLILKRVLEMRKKALFILPFVSVAKEKKYYLQSLFQEVGIKVDGYMGSTSPSRHFSSLDIAVCTIERANGLINRLIEENKMDLLGMVVVDELHMLGDSHRGYLLELLLTKICYITRKSASCQADLASSLSNAVQIVGMSATLPNLELVASWLNAELYHTDFRPVPLLESVKVGNSIYDSSMKLVREFEPMLQVKGDEDHVVSLCYETICDNHSVLLFCPSKKWCEKLADIIAREFYNLHHQAEGLVKPSECPPVILEQKELLEVMDQLRRLPSGLDSVLQKTVPWGVAFHHAGLTFEERDIIEGAFRQGLIRVLAATSTLSSGVNLPARRVIIRTPIFGGRPLDILTYKQMVGRAGRKGVDTVGESILICKNSEKSKGIALLQGSLKPVRSCLQRREGEEVTGSMIRAILEIIVGGVASTSQDMHTYAACTFLAASMKEGKQGIQRNQESVQLGAIEACVMWLLENEFIQSTEASDGTEGKVYHPTHLGSATLSSSLSPADTLDIFADLQRAMKGFVLENDLHILYLVTPMFEDWTTIDWYRFFCLWEKLPTSMKRVAELVGVEEGFLARCVKGKVVARTERQHRQMAIHKRFFTSLVLLDLISEVPLREINQKYGCNRGQIQSLQQSAAVYAGMITVFSNRLGWHNMELLLSQFQKRLTFGIQRELCDLVRVSLLNAQRARVLYASGFHTVADLARANIVEVEVILKNAVPFKSARKAVDEEEEAVEERRNMRTIWVTGRKGLTEREAAALIVEEARMILQQDLVEMGVQWNPCALLHSSTCSLTHSESEVKEHTFISQTKSSYKKLTSKNKS
stoichiometry N: 2

From doi:10.1101/2023.01.20.524915 (bioRxiv, 2023)
